Experimental data as given in the supplement of paper PMC9170038.

Tested on: MS2 coat protein
Assay: apparent KD of MS2 coat protein; designed switch direction (-1 OFF switch, 1 ON switch): -1; higher = weaker reporter binding
Procedure, shortened: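 On Illumina chips, designed RNA switches with common flanks were made by stalled E. coli RNA polymerase. Titrations with SNAP-549-labelled MS2 coat protein, doubling from 0.7 or 1.5 nM to 3 µM, were done with no input, with 200 uM small-molecule ligand, or with an oligonucleotide input. Apparent KD is the median per design over clusters, from curve fits of normalised cluster fluorescence.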

[1] = input ligand: microRNA oligo, concentration not stated
[2] = Eterna round: R95, input ligand: FMN 200 uM
[3] = Eterna round: R95, input ligand: microRNA oligo, concentration not stated
[4] = Eterna round: R95, input ligand: none

Row | Sequence | apparent KD of MS2 coat protein (input ligand: FMN 200 uM) [µM] | apparent KD of MS2 coat protein [1] [µM] | apparent KD of MS2 coat protein (input ligand: none) [µM] | apparent KD of MS2 coat protein [2] [µM] | apparent KD of MS2 coat protein [3] [µM] | apparent KD of MS2 coat protein [4] [µM]
1 | AUUAUACAUGUAGGAUAUCUGCACGUGUAGUGCAGAGAAGGACAUGAGGAUCACCCAUGUAGAUCAAUAAUAAUUAAUUUAAUU [ENG1/6-B3] (Eterna round: R96, puzzle: Exclusion NG 1) | 0.184 | 0.0968 | 0.104 | – | – | –
2 | GCGCGAAGGUAGGAUAUCGACGGAUCUUCCGGCCGAGAAGGACCCACAUGAGGAUCACCCAUGUGGUGAUCCUG [eternacac ex6r4 sub10] (Eterna round: R97, puzzle: Exclusion 6) | 0.0175 | – | 0.0165 | – | – | –
3 | GAAUAGGUAGGAUAUACGAAAAAAAAGGGUAGAAAAAAAACACAUGAGGAUCACCCAUGUAGAAGGACCAAAAG [salish99_ex2_r3_089] (puzzle: Exclusion 2) | – | – | – | 0.0686 | 0.0316 | 0.0296
4 | ACAUGAAGAUAGGAUAUCCGCGAAAAUGGUCUAGGAGAAGGGUCUACAUGAGGAUCACCCAUGUAGCAGUGGAU [Eternabot (L1) Solution 79] (Eterna round: R97, puzzle: Exclusion 6) | 0.0147 | – | 0.0167 | – | – | –
5 | CGCAUGUGAGGAUAUGUACUAGUUGAGCACAGUCAGCCAGAACAGAAGGCACAUGAGGAUCACCCAUGUGUACC [EX4 B.7] (Eterna round: R97, puzzle: Exclusion 4) | 0.154 | – | 0.0223 | – | – | –
6 | ACUUUUUGAGGAUAUACAUUGAUUAACAUGAGGAUCACCCAUGUACAAACAUGUAUUUGUGUAGAAGGCAGAAGAA [JR_Ex5_Sub068] (Eterna round: R97, puzzle: Exclusion 5) | 0.0149 | – | 0.0132 | – | – | –
7 | AGAUGUAGAUACCGAUCCUACAUGAGGAUCACCCAUGUAGCUAGACGUGCACGCGUAGCUCGUCAGACUACCAGAAG [salish99_TOv1_r3_085] (puzzle: Sensor v3, turn-off variant 1) | – | – | – | 0.292 | 0.147 | 0.223
8 | ACACGGAUAGGAUAUACUUGAGGAUCACCCAAGUGGAACCGCUUGUCCCGAUCCUAGAGUAGAAGGAUCAAAUA [Anusxebiat] (Eterna round: R97, puzzle: Exclusion 3) | 0.149 | – | 0.0443 | – | – | –
9 | CUUUGACAUGAGGAUCACCCAUGUGAGGAUAUGAUGCGAUCGUCGAAAGACGAUAGCAUCAGAAGGCACAUAUG [Fiskers Ex 1 - 7] (puzzle: Exclusion 1) | – | – | – | – | 0.0926 | –
10 | UUAAUGGUUGUGAGGAUAUCGGAUAGAUAGAUAUUCGAGAAGGCACAUGAGGAUCACCCAUGUGUGAUCAGAAA [Brourd's EX4 #61] (Eterna round: R97, puzzle: Brourd's mod of Exclusion 4) | 0.41 | – | 0.202 | – | – | –
11 | GACAGGGCAGGAUAUCGAGAUCCGCACAUGAGGAUCACCCAUGUUCGGUCGAAAGACCGACGAGAAGGGCCGUGUC [Omei Ex5 E5] (Eterna round: R97, puzzle: Exclusion 5) | 0.651 | – | 0.869 | – | – | –
12 | UGAGUGCUGCGAGGAUAUACAUGAGGAUCACCCAUGUUUACCUGUGAGGCAAAGCCUCACAGGUUGUAGAAGGCGCAGUACUCU [Mat - Exclusion NG 2 - Mod of JL - D41] (Eterna round: R96, puzzle: Exclusion NG 2) | 0.016 | 0.0113 | 0.0186 | – | – | –
13 | AUGUCGGCAGGAUAUACAUGAGGAUCACCCAUGUAAAUUUUUCGUUUAACUUGAAUGUGUAGAAGGGCCAUGAA [Ex3 #68] (Eterna round: R97, puzzle: Exclusion 3) | 0.0309 | – | 0.033 | – | – | –
14 | CAUCUGUGAGGAUAUGGUGAGUAGUGCCUGAGCGCUGCUCACCAGAAGGCACAUGAGGAUCACCCAUGUAUGAC [JL-ex4-2.01 denovo] (Eterna round: R96, puzzle: Exclusion 4) | 0.319 | 0.0463 | 0.07 | – | – | –
